According to publication PMC4820838:

Target: STAT3-NTD-YFP
Test: pair correlation of molecular brightness (pCOMB); pair correlation of brightness fluctuations along a 64-pixel confocal line scan from cytoplasm to nucleus of live HeLa cells; amplitude calibrated against free GFP, YFP or mCherry; cells stimulated with 10 nM oncostatin M for 15 min

Chain of STAT3-NTD-YFP (domain or fragment) (P40763 2-770): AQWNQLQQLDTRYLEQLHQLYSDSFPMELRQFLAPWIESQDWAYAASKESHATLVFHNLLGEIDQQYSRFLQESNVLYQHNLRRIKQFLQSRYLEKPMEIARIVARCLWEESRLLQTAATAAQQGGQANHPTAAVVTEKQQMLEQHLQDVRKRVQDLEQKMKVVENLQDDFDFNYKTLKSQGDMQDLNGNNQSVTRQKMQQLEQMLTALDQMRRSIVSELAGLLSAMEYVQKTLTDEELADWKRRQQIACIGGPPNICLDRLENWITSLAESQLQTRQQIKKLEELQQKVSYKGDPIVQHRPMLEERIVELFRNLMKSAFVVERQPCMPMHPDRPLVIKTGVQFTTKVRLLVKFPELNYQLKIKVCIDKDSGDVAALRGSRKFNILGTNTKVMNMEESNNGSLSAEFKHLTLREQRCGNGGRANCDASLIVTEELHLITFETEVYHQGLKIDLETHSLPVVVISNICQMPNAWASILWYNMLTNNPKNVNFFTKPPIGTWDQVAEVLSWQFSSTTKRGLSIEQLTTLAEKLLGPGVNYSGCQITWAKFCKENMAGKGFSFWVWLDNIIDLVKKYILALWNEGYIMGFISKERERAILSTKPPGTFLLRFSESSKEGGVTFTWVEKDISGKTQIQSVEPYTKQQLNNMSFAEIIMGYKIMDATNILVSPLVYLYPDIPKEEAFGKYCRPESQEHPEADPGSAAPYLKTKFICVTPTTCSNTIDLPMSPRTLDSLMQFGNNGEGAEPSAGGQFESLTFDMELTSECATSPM

## STAT3-NTD-YFP (domain or fragment)
  stoichiometry N: 2
